The source of these data is US20210238298A1.

For test [1], the target named is CD137 chimera 1550 (1407): human CD137 with mouse domains 1, 2A and 2B (aa 24-86), on FreeStyle 293-F cells (human; mouse) (UniProt P20334). In words: flow cytometry, 293-F transfectants.
Test [2] has as its target CTLA-4 (BMS, Orencia) (human) (UniProt P16410). Nature of the test: cell-based or functional assay.

Chain of CTLA-4 (BMS, Orencia) (human) (P16410 38-152 limits assumed): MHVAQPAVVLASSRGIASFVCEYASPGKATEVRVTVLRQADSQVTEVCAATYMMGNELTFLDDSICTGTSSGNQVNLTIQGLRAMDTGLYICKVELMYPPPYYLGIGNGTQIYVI
Chain of UniProt P20334 (P20334 other isoform, or with tags, fused parts or gaps mutant limits assumed): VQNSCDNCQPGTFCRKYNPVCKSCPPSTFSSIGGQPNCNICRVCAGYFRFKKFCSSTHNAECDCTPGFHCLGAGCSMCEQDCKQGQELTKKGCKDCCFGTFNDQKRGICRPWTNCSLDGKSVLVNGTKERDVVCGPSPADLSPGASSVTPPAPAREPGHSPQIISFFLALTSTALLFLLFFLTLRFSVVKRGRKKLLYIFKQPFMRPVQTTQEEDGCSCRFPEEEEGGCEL

B1: anti-CD137 antibody 1204/1205 (antibody, IgG1, V domains shown)
VH: EVQLLESGGGLVQPGGSLRLSCAASGFTFSSYYMGWVRQAPGKGLEWVSGIGSYYGYTGYADSVKGRFTISRDNSKNTLYLQMNSLRAEDTAVYYCARAYYDYNYYYAYFDYWGQGTLVTVSS
VL: DIQMTQSPSSLSASVGDRVTITCRASQSISSYLNWYQQKPGKAPKLLIYAASSLQSGVPSRFSGSGSGTDFTLTISSLQPEDFATYYCQQSVPHYPFTFGQGTKLEIK
Take B1: the relative binding (MFI sample/isotype control, normalised to full-length human CD137) in test [1] was 0.07.

B2: 1756/1757 (isotype control antibody fused to the 1040 CTLA4 binding region) (protein, part only; not given: Isotype control antibody chains, part only)
chain: APLKIQAYFNETADLPCQFANSQNLSLSELVVFWQDQENLVLNEVYLGKERFDSVDSKYMGRTSFDSDSWTLRLHNLQIKDKGRYQCIIHHKKPTGMINIHQMNSELSVLA
For B2, the Mean IL-2 level (pg/ml) induced at 1.5 nM (control) in test [2] was determined as 1050 pg/mL.
